This passage reports percent reduction of Aβ42 binding to mLRPIV results from article PMC12594171, “DKK3-LRP1 complex and a chemical inhibitor regulate Aβ clearance in models of Alzheimer’s disease” (Science Advances, 2025).

The target in this test is mLRPIV-HA, stably expressed in SH-SY5Y. The experiment in a line: co-IP + ELISA; SH-SY5Y cells stably expressing mLRPIV-HA incubated with Aβ42 and 1 to 200 nM DKK1 or DKK3; mLRPIV-HA precipitated with anti-HA affinity gel; Aβ42 in the eluate by ELISA. For orientation: An ELISA detects its analyte on a solid surface through an enzyme-linked reagent.

Sequence of DKK3-Flag (Q9UBP4 22-350): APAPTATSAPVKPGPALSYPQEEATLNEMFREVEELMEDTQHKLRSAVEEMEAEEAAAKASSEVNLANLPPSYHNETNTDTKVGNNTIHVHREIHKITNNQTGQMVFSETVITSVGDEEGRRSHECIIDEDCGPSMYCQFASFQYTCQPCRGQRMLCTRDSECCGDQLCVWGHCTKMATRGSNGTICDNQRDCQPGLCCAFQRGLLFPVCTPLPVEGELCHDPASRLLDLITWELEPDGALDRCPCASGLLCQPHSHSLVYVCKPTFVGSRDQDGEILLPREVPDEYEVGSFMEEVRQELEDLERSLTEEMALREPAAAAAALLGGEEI

Regarding “DKK3-Flag (from UniProt Q9UBP4 22-350) (ligand)”, the percent reduction of Aβ42 binding to mLRPIV at 20 nM DKK3 worked out at 60%.
